These results are taken from patent US20230303681A1 (published 2023).

Where only a bound is given, the exact number is not on record here.

Assay [1] deals with T1, human TMEM106B (human, UniProt Q9NUM4 2-274).
T1 construct: Full-length, on transiently transfected HEK293 cells, or natively expressed on HeLa, U251 and A549 cells; also called huTMEM106B; huTMEM
Put plainly: FACS A549.

In assay [2] the target is T1, human TMEM106B. Put plainly: FACS HeLa.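 Further: flow cytometry of cells incubated with hybridoma supernatant or purified antibody at 10 µg/ml for 1 h on ice, propidium iodide–positive dead cells gated out.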
The target of assay [3] is T1, human TMEM106B. Kind of assay: FACS U251.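 Further: flow cytometry of cells exposed to antibody (purified at 10 µg/mL, or hybridoma supernatant) for 1 h on ice, with propidium iodide-positive dead cells gated out.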
Assay [4] has as its target T2, mouse TMEM106B (mouse, UniProt Q80X71 2-275).
T2 construct: on transiently transfected HEK293 cells, or natively expressed on mouse Neuro2a cells; also called moTMEM106B; murine TMEM106B
Kind of assay: FACS Neuro2a.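 Further: flow cytometry of cells stained with antibody or hybridoma supernatant (purified antibody at 10 µg/ml) for 1 h on ice, propidium iodide–positive dead cells gated out.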

Assay [5] deals with T3, GST (Pierce) (UniProt P08515 1-218 = GST, limits assumed).
T3 construct: control for the GST part of the fusion protein; also called GST protein; Glutathione-S-transferase
Put plainly: ELISA, coated GST.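 Further: ELISA on plates coated with GST alone at 1-10 µg/ml, antibodies applied at 100-1000x dilution, bound antibody detected by peroxidase substrate colour after acid stop.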 Background: In an ELISA, binding on a coated surface is turned into a signal by an enzyme label.

Assay [6] has as its target T1, human TMEM106B. Kind of assay: FACS A549, 1 ug/ml.
Method: (§1) Purified anti-TMEM106B antibodies were evaluated for their binding affinity to various TMEM106B-expressing cell lines including HEK293 transiently transfected with human/cyno/mouse TMEM106B, as well as HeLa cells and A549 cells. Antibodies tested for this experiment were mouse IgGs purified from hybridoma supernatant. Affinity binding to cells was determined as follows. Briefly, 1x10^5 cells were aliquoted per well in 96-well round bottom plates and incubated with 50 µL of purified anti-TMEM106B antibody at various concentrations (10x dilutions starting at 10 µg/ml) in FACS buffer (PBS + 2% FBS + 1 mM EDTA). […] Sorting was performed on a iQue (Intellicyt), with sort gates drawn to exclude dead (propidium iodide +) cells. Binding data was analyzed using median fluorescent intensity (MFI) and graphed in Prism. Values presented are MFI.
Assay [7] concerns the target T1, human TMEM106B. Kind of assay: FACS A549, 10 ug/ml.
In assay [8] the target is T1, human TMEM106B. Put plainly: FACS, HEK293 transfectants.
Method: Initial screening of the anti-TMEM106B hybridomas was performed as follows.
For screening of the hybridoma cell culture supernatants, humanTMEM106B-transfected HEK293 cells were aliquoted in 96-well round bottom plates (2x10^5 cells per well) and incubated with 50 µL of hybridoma cell culture supernatant on ice for 30 minutes. […] Cell sorting was performed on a FACS Canto system (BD Biosciences) or iQue (Intellicyt), with sort gates drawn to exclude dead (i.e., propidium iodide-positive) cells. Median fluorescence intensity (MFI) of anti-mouse-APC MFI on TMEM106B+ HEK293 cells was calculated for each clone, and those displaying a signal of at least 2-fold over background compared to a secondary-antibody only well were taken forward for further analysis and characterization.
For assay [9], the target named is T1, human TMEM106B. Kind of assay: FACS HEK+huTMEM, 10 ug/ml.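 Further: purified mouse IgG antibodies at 10 µg/ml bound to HEK293 cells transiently expressing human TMEM106B, measured by flow cytometry as median fluorescence intensity of propidium iodide negative live cells.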
Method: as §1
The target in assay [10] is T1, human TMEM106B. Put plainly: FACS, HEK293 transfectants. This is another data set of the same source. A general note: Flow cytometry measures light scatter and fluorescence of single cells or particles in a stream.
Method: (§2) For screening of the hybridoma cell culture supernatants, humanTMEM106B-transfected HEK293 cells were aliquoted in 96-well round bottom plates (2x10^5 cells per well) and incubated with 50 µL of hybridoma cell culture supernatant on ice for 30 minutes. […] Median fluorescence intensity (MFI) of anti-mouse-APC MFI on TMEM106B+ HEK293 cells was calculated for each clone, and those displaying a signal of at least 2-fold over background compared to a secondary-antibody only well were taken forward for further analysis and characterization.
The target of assay [11] is T4, cynomolgus (cyno) TMEM106B (cynomolgus, UniProt Q9NUM4 2-274 (human entry)).
T4 construct: on transiently transfected HEK293 cells
Put plainly: FACS, HEK293 transfectants.
Method: as §2

Assay [12] has as its target T2, mouse TMEM106B. Put plainly: FACS, HEK293 transfectants.
Method: as §2
Assay [13] has as its target T1, human TMEM106B. Put plainly: FACS HEK+huTMEM, 0.1 ug/ml.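 Further: flow cytometry binding of purified mouse IgG antibodies to HEK293 cells transiently expressing TMEM106B, read as median fluorescence intensity with propidium iodide positive dead cells gated out.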
Assay [14] deals with T1, human TMEM106B. Kind of assay: FACS HEK+huTMEM, 1.0 ug/ml.
Method: as §1
Assay [15] concerns the target T1, human TMEM106B. Put plainly: FACS HEK+huTMEM, 0.01 ug/ml.
Method: as §1
Assay [16] deals with T5, GST-fusion human TMEM106B truncated (human).
T5 construct: also called GST-TMEM106B-truncated protein; GST-TMEM106B (truncated)
Put plainly: epitope binning, array SPR (Community 3, Bin 5).
Method: Epitope binning of the anti-TMEM106B antibodies was performed by Carterra (Salt Lake City, Nevada, USA) using a pre-mix epitope binning approach.

For assay [17], the target named is T3, GST (Pierce). Kind of assay: array SPR, Ab immobilised.
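Wherever fold over negative controls is given: hybridoma supernatants incubated 30 min on ice with human TMEM106B-expressing HEK293 cells, binding read as anti-mouse-APC median fluorescence on live cells, relative to secondary-antibody-only wells.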
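Wherever fold-change over parental HEK293 is given: flow cytometry binding of hybridoma supernatants to HEK293 cells transiently expressing human, cyno or mouse TMEM106B, read as anti-mouse-APC median fluorescence, live cells only, 30 min on ice.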

B1: anti-TMEM106B antibody TM-15 (antibody, V domains shown)
VH: QVQLQQPGAEFVRPGASVKLSCKASGYTFTNYWITWVKQRPGHGLEWIGDIYPGSGNSNYNESFKRKATLTVDTSSSTAYMHLSSQTSEDSAVYFCARKAYGGFPYWGQGTLVTVSA
VL: DIQMTQSPASLSVSVGETVTITCRVSENIYNNLAWYQQKQEKSPQLLVFAATNLADGVPSRFSGSGSGTQFSLKINSLQSEDFGTYYCQHFWDTPFTFGSGTKLEIK
notes: mouse IgG from hybridoma
As to B1, the MFI was 938 in the assay with human TMEM106B [1]; 660 with human TMEM106B [2]; 382 in the assay with human TMEM106B [3]; 470 with mouse TMEM106B [4]; 650 with human TMEM106B [6]; 1980 with human TMEM106B [7]. The MFI in the assay with human TMEM106B [9] stood at 63100; with human TMEM106B [13], 2060; with human TMEM106B [14], 14300; with human TMEM106B [15], 584. In addition, the binding result with GST (Pierce) [5] is recorded as “no binding”; in assay [16], “no binding (tested: 55 nM antigen)”. Also, the “fold over negative controls” value with human TMEM106B [8] was over 2 fold. Also, the figures for the “fold-change over parental HEK293” value (with human TMEM106B [10]; in assay [11]; with mouse TMEM106B [12]) were 31.4 fold, 57.7 fold and 46.8 fold, respectively.

B2: anti-TMEM106B antibody TM-6 (antibody, V domains shown)
VH: QVQLQQSGAELVKPGASVKLSCKASGYTFTEYTIHWVKQRSGQGLEWIGWFYPGSTYIDYNEKFKDKATLTADKSSSTVYLELSRLTSEDSAVYFCARHEEDYSNWFPFWGQGTLVTVSA
VL: DIQMSQSSSYLSVSLGGRVTITCKASDHINNWLAWYQQKPGNAPRLLISGATSLETGVPSRFSGSGSGKDYTLSITSLQTEDVATYYCQQYWSSPYTFGGGTKLEIK
notes: mouse IgG from hybridoma
Consider B2, for which the MFI is 1100 with human TMEM106B [1]; 520 in the assay with human TMEM106B [2]; 304 with human TMEM106B [3]; 371 in the assay with mouse TMEM106B [4]; 418 in the assay with human TMEM106B [6]; 544 with human TMEM106B [7]. The MFI with human TMEM106B [9] came to 581; in the assay with human TMEM106B [13] it was 327; with human TMEM106B [14], 393; in the assay with human TMEM106B [15] it was 294. The binding result was “no binding” with GST (Pierce) [5] and “no binding (tested: 55 nM antigen)” in assay [16]. The “fold over negative controls” value with human TMEM106B [8] was over 2 fold. The figures for the “fold-change over parental HEK293” value (with human TMEM106B [10]; in [11]; with mouse TMEM106B [12]) were 4.13 fold, 1.25 fold and 1.25 fold, respectively.

B3: anti-TMEM106B antibody TM-33 (antibody, V domains shown)
VH: EFQLQQSGPELVKPGASVKISCKASGYSFTDYNMNWVKQSNGKSLEWIGVINPNYGTTSYNQKFKGKATLTVDQSSSTAYMQLNSLTSEDSAVYYCASSYWGQGTLVTVSA
VL: DIVMTQSQKFMSTTVGDRVSITCKASQNVGTAVAWYQQKPGQSPKLLIYSASNRYTGVPDRFTGSGSGTDFTLTISNMQSEDLADYFCQQYSSYPYTFGGGTKLEIK
notes: mouse IgG from hybridoma
As to B3, the MFI with human TMEM106B [1] stood at 298; with human TMEM106B [2], 148; in the assay with human TMEM106B [3] it was 202; with mouse TMEM106B [4], 233; with human TMEM106B [6] it was 366; in the assay with human TMEM106B [7], 514. Further, the MFI with human TMEM106B [9] amounted to 12100; with human TMEM106B [13], 1750; with human TMEM106B [14], 5630; in the assay with human TMEM106B [15] it was 651. Moreover, the values for the binding result (in the assay with GST (Pierce) [5]; in assay [16]) were “no binding” and “no binding (tested: 55 nM antigen)”, respectively. Moreover, the “fold over negative controls” value in the assay with human TMEM106B [8] was over 2 fold. The “fold-change over parental HEK293” value with human TMEM106B [10] was determined as 10.2 fold; in [11], 7.74 fold; with mouse TMEM106B [12], 45.8 fold.

B4: anti-TMEM106B antibody TM-49 (antibody, V domains shown)
VH: QVQLQQPGAELVRPGSSVKLSCKASGYTFTRFWMHWVKQRPIQGLEWIGNIDPSDSQTHYNQKFKDKATLTVDKSSSTAYMQLSSLTSEDSAVYYCARLITVDYAMDYWGQGTSVTVSS
VL: QIVLTQSPAIMSASPGEKVTISCSASSSVSYMYWYQQKPGSSPKPWIHRTSNLASGVPVRFSGSGSGTSYSLTISSMEAEDAATYYCQQYHSYPPTFGAGTKLELK
notes: mouse IgG from hybridoma
With B4, the MFI came out at 924 in the assay with human TMEM106B [1]; 187 in the assay with human TMEM106B [2]; 434 in the assay with human TMEM106B [3]; 291 with mouse TMEM106B [4]; 473 with human TMEM106B [6]; 613 with human TMEM106B [7]. The MFI amounted to 16500 with human TMEM106B [9], 3030 in the assay with human TMEM106B [13], 15700 in the assay with human TMEM106B [14] and 756 with human TMEM106B [15]. Besides, the binding result in the assay with GST (Pierce) [17] is recorded as “no binding”; in [16], “no binding (tested: 55 nM antigen)”. In the assay with human TMEM106B [8], the “fold over negative controls” value was over 2 fold. The “fold-change over parental HEK293” value with human TMEM106B [10] is 15.6 fold; in assay [11], 13.8 fold; with mouse TMEM106B [12], 21.3 fold.

B5: anti-TMEM106B antibody TM-14 (antibody, V domains shown)
VH: QVQLQQSGPELVRPGTSVKVSCKASGYAFTNYLIEWVKQRPGQGLEWIGVINPGGGNTDYSEKFKDKATLTADKSSNTAYIQLSSLTSEDSAVYFCARSPYSSYVGYAVDYWGQGTSVTVSS
VL: DIQMTQSPSSLSASLGERVSLTCRASQDIGSNLNWLQQEPDGTIKRLIYATSSLDSGVPKRFSGSRSGSDYSLTISSLESEDFVVYYCLQYASSPRTFGGGTRLEIK
notes: mouse IgG from hybridoma
In the case of B5, the MFI came out at 896 in the assay with human TMEM106B [1]; 307 with human TMEM106B [2]; 270 with human TMEM106B [3]; 300 with mouse TMEM106B [4]; 409 with human TMEM106B [6]; 438 with human TMEM106B [7]. Also, the MFI with human TMEM106B [9] worked out at 1190; with human TMEM106B [13], 364; with human TMEM106B [14] it was 680; with human TMEM106B [15], 314. Also, the figures for the binding result (with GST (Pierce) [5]; in assay [16]) were “no binding” and “no binding (tested: 55 nM antigen)”, respectively. In the assay with human TMEM106B [8], the “fold over negative controls” value was over 2 fold. The entries for the “fold-change over parental HEK293” value (with human TMEM106B [10]; in assay [11]; with mouse TMEM106B [12]) were 3.96 fold, 4.56 fold and 1.77 fold, respectively.

B6: anti-TMEM106B antibody TM-8 (antibody, V domains shown)
VH: QIQLVQSGPELKKPGETVKISCKASGYTFTDYPMHWVKQAPGKGFKWMGVIYTDTGEPKYAEVFKGRFAFSLETSASTAYLQINNLKNEDTATYFCVRRLAYWGQGTLVTVSA
VL: DIKMTQSPSSMYASLGERVTITCKASQDINSYLSWFQQKPGKSPKTLIFRANRLVDGVPSRFSGSGSGQDYSLTISSLEYEDMGIYYCLQYDEFPLTFGAGTKLEMK
notes: mouse IgG from hybridoma
Turning to B6, the MFI with human TMEM106B [1] is 554; with human TMEM106B [2], 568; with human TMEM106B [3] it was 304; with mouse TMEM106B [4] it was 370; with human TMEM106B [6], 393; with human TMEM106B [7], 492. For the same molecule, the MFI in the assay with human TMEM106B [9] came out at 465; with human TMEM106B [13] it was 305; with human TMEM106B [14] it was 317; with human TMEM106B [15], 301. In addition, the binding result was “no binding” with GST (Pierce) [5] and “no binding (tested: 55 nM antigen)” in [16]. Further, the “fold over negative controls” value with human TMEM106B [8] is over 2 fold. Also, the “fold-change over parental HEK293” value is 2.1 fold with human TMEM106B [10], 2.62 fold in assay [11] and 1.63 fold with mouse TMEM106B [12].
